In patent US7786356B2, “Method for the production of calendic acid, a fatty acid containing delta 8,10,12 conjugated double bonds and related fatty acids having a modification at the delta 9 position” (E.I. du Pont de Nemours and Company, priority 1999, dated 2010):

Tests used:
somatic soybean embryos = assay: Production of calendic acid in somatic soybean embryos expressing CalFad2-1 or CalFad2-2; format: cell-based; conditions: single somatic embryos
Excerpt: The open-reading frames of these cDNAs were amplified by PCR in order generate the appropriate flanking restriction enzyme sites for cloning into the soybean expression vector. The oligonucleotide primers used for amplification of the CalFad2-1 open-reading frame were: 5′-ttgcggccgc[…]-3′ (sense, SEQ ID NO:18) and 5′-ttgcggccg[…]-3′ (antisense, SEQ ID NO:19). The oligonucleotide primers used for amplification of the CalFad2-2 coding sequence were: 5′-agcggccgcTATACCATGGGCAAG-3′ (sense, SEQ ID NO:20) and 5′-tgcggccgcTATGTTAAACTTC-3′ (antisense, SEQ ID NO:21). [Note: The sequences shown in lower case contain an added NotI site along with additional bases to facilitate restriction enzyme digestion.] The template was the cDNA corresponding to either EST ecs1c.pk009.n14 (CalFad2-1) or EST ecs1c.pk08.a24 (CalFad2-2), and Pfu polymerase (Stratagene) was used for the amplification reactions. The resulting PCR products were subcloned into the intermediate vector pCR-Script AMP SK(+) (Stratagene) according to the manufacturer's protocol. The amplified CalFad2-1 and CalFad2-2 coding sequences were then released with NotI digestion and then subcloned into the corresponding site of the soybean expression vector pKS67.
The PCR amplified coding sequences of CalFad2-1 and CalFa2-2 were fused with the β-conglycinin promoter and phaseolin termination sequences in vector pKS67 was transformed into somatic soybean embryos as follows. To induce somatic embryos, cotyledons, 3-5 mm in length dissected from surface sterilized, immature seeds of a soybean cultivar A2872 or JACK-910 were cultured in the light or dark at 26° C. on an appropriate agar medium for 6-10 weeks. Somatic embryos that produce secondary embryos were then excised and placed into a suitable liquid medium. After repeated selection for clusters of somatic embryos that multiplied as early, globular staged embryos, the suspensions were maintained as described below.
Soybean embryogenic suspension cultures were maintained in 35 mL liquid media on a rotary shaker, 150 rpm, at 26° C. with florescent lights on a 16:8 hour day/night schedule. Cultures were subcultured every two weeks by inoculating approximately 35 mg of tissue into 35 mL of liquid medium.
Soybean embryogenic suspension cultures were then transformed with the vector pKS67 containing the coding sequence for CalFad2-1 and CalFad2-2 by the method of particle gun bombardment (Klein et al. (1987) Nature (London) 327:70, U.S. Pat. No. 4,945,050). A Du Pont Biolisticä PDS1000/HE instrument (helium retrofit) was used for these transformations.
To […] of a 60 mg/mL […] gold particle suspension were added (in order): 5 mL DNA (1 mg/mL), 20 ml spermidine (0.1 M), and […] CaCl2 (2.5 M). The particle preparation was then agitated for three minutes, spun in a microfuge for 10 seconds and the supernatant removed. The DNA-coated particles were then washed once in 400 mL 70% ethanol and resuspended in 40 mL of anhydrous ethanol. The DNA/particle suspension was sonicated three times for one second each. Five mL of the DNA-coated gold particles was then loaded on each macro carrier disk.
Approximately 300-400 mg of a two-week-old suspension culture was placed in an empty 60×15-mm petri dish and the residual liquid removed from the tissue with a pipette. For each transformation experiment, approximately 5 to 10 plates of tissue were bombarded. Membrane rupture pressure was set at 1100 psi and the chamber was evacuated to a vacuum of 28 inches mercury. The tissue was placed approximately 3.5 inches away from the retaining screen and bombarded three times. Following bombardment, the tissue was divided in half and placed back into liquid and cultured as described above.
Five to seven days post bombardment, the liquid media was exchanged with fresh media, and eleven to twelve days post bombardment with fresh media containing […] hygromycin. This selective media was refreshed weekly. […]

[1] = test system: Saccharomyces cerevisiae INVSc1 cells; assay: Expression of CalFad2-1 and CalFad2-2 in Saccharomyces cerevisiae; format: cell-based; conditions: cells grown in media containing 2 mM linoleic acid, 4 days at 16° C.; (w/w) of total fatty acids
Excerpt: The Calendula officinalis clones CalFad2-1 and CalFad2-2 were digested with the restriction enzymes EcoRI and XhoI. The resulting DNA fragments containing the entire cDNA inserts were purified by agarose gel electrophoresis. The purified cDNAs were ligated into the EcoRI and XhoI sites of the Saccharomyces cerevisiae expression vector pYES2 (Invitrogen) using T4 DNA ligase (New England Biolabs). The resulting plasmids pYes2/CalFad2-1 and pYes2/CalFad2-2 were introduced into Saccharomyces cerevisiae INVSc1 (Invitrogen Corp.) cells by lithium acetate-mediated transformation [Sherman F, Fink G R, Hicks J B, Methods in Yeast Genetics: A Laboratory Course Manual, Cold Spring Harbor Lab. Press, Plainview, N.Y. (1987)]. Transformed cells were selected for their ability to grow in the absence of uracil. […] In cells grown in media containing linoleic acid, calendic acid (18:3Δ^8trans,10trans,12cis) was detected in amounts of up to 2.9% (w/w) of the total fatty acids of cultures expressing CalFad2-1 (FIG. 3) and in amounts of up to 0.2% of the total fatty acids of cultures expressing CalFad2-2. […] No calendic acid was detected in cultures harboring the expression vector without a cDNA insert or in cells grown in the absence of exogenous linoleic acid. […]

[2] = n = 5, ± standard deviation, weight % of total fatty acids

B1: CalFad2-1: Calendula officinalis fatty acid modifying enzyme (cDNA SEQ ID NO:1, protein SEQ ID NO:2) forming conjugated double bonds at delta-9 position (protein, listed as Calendula officinalis)
chain: MGKGASNKKVLERVPITKPPFEYNDLKKAVPPHCFSRPLFRSFYFLLHDIIVTCILFYVASNYIPMLPGFLSYIVWPVYWISQGVFLGRLWMIGHECGHHSFSNYRWVDDSVGFLIHTATLTPYFSFKYSHRNHHAHTNSMEYDEVHIPKRKSEALDLYFEFLGNNPMGLMITMLCKLTFGYAAYIMFNYTGKKHKSGGLASHFYPQSPLFNDSERNHVLFSDVGICIVLYACYRIVMVTGAMSAFYVYGIPWVIMSAILFAATYLQHTHPSIPHYDTTEWNWLRGALSTIDRDLGFFNMNKTHYHVIHHLFPVIPEYHAQEATEAIKPILGQYYKYDGTPFLKALWREMKDCIYVESDQGQKKQGIYWFKNKI
With B1 the “Other, Fatty Acid Weight %” value (somatic soybean embryos; n = 5, weight % of total fatty acids) was “≦1.3 Weight %”, the “16:0, Fatty Acid Weight %” value (somatic soybean embryos; [2]) was 12.2 ± 1.0 Weight % and the “18:0, Fatty Acid Weight %” value (somatic soybean embryos; [2]) was 3.5 ± 0.9 Weight %. The “18:1, Fatty Acid Weight %” value (somatic soybean embryos; [2]) was 9.0 ± 1.5 Weight %, the “18:2, Fatty Acid Weight %” value (somatic soybean embryos; [2]) was 52.2 ± 2.4 Weight % and the “18:3, Fatty Acid Weight %” value (somatic soybean embryos; [2]) was 18.8 ± 3.0 Weight %. The “Calendic Acid, Fatty Acid Weight %” value (somatic soybean embryos; [2]) was 3.1 ± 1.0 Weight % and the “calendic acid (18:3Δ8trans,10trans,12cis), amount of the total fatty acids” value [1] was “up to 2.9%”.
